# Measurements as given in patent US10745460B2, “Peptides and combination of peptides for use in immunotherapy against various tumors” (Immatics Biotechnologies GmbH, priority 2015, dated 2020).
# Biological target: HLA-A*02:01 (Homo sapiens, UniProt P04439, D140Y/D185E/D98H/E176V/E277Q/G131W/G231S/I119V/I121R/I166T/I218V/L300P/L318F/N151K/N90K/P208A/P217A/Q86G/Q94H/R138H/R169H/T345S)
# Experiment: MHC binding assay: UV-ligand exchange with β2m ELISA (peptide exchange yield)
# Settings: binding to HLA-A*02:01 evaluated by peptide exchange yield (UV-ligand exchange, β2m ELISA)
# Description: Candidate peptides for T cell based therapies according to the present invention were further tested for their MHC binding capacity (affinity). The individual peptide-MHC complexes were produced by UV-ligand exchange, where a UV-sensitive peptide is cleaved upon UV-irradiation, and exchanged with the peptide of interest as analyzed. Only peptide candidates that can effectively bind and stabilize the peptide-receptive MHC molecules prevent dissociation of the MHC complexes. To determine the yield of the exchange reaction, an ELISA was performed based on the detection of the light chain (β2m) of stabilized MHC complexes. The assay was performed as generally described in Rodenko et al. (Rodenko et al., 2006).
# 96 well MAXISorp plates (NUNC) were coated over night with 2 ug/ml streptavidin in PBS at room temperature, washed 4× and blocked for 1 h at 37° C. in 2% BSA containing blocking buffer. Refolded HLA-A*02:01/MLA-001 monomers served as standards, covering the range of 15-500 ng/ml. Peptide-MHC monomers of the UV-exchange reaction were diluted 100 fold in blocking buffer. Samples were incubated for 1 h at 37° C., washed four times, incubated with 2 ug/ml HRP conjugated anti-β2m for 1 h at 37° C., washed again and detected with TMB solution that is stopped with […]. Absorption was measured at 450 nm. Candidate peptides that show a high exchange yield (preferably higher than 50%, most preferred higher than 75%) are generally preferred for a generation and production of antibodies or fragments thereof, and/or T cell receptors or fragments thereof, as they show sufficient avidity to the MHC molecules and prevent dissociation of the MHC complexes.
row,Substance,Peptide exchange
1,225 (FLPQPVPLSV; listed as Homo sapiens) [compound 225],+++ (≥50 = +++)
2,34 (TLNTLDINL; listed as Homo sapiens) [compound 34],+++ (≥50 = +++)
3,252 (SLMEKNQSL; listed as Homo sapiens) [compound 252],++ (≥20% = ++)
4,96 (ALDTTRHEL; listed as Homo sapiens) [compound 96],++ (≥20% = ++)
5,282 (SLYALHVKA; listed as Homo sapiens) [compound 282],++ (≥20% = ++)
6,158 (YLDPLWHQL; listed as Homo sapiens) [compound 158],+++ (≥50 = +++)
7,274 (TLYNPERTITV; listed as Homo sapiens) [compound 274],+++ (≥50 = +++)
8,60 (YLFSQGLQGL; listed as Homo sapiens) [compound 60],+++ (≥50 = +++)
9,75 (ALLDGALQL; listed as Homo sapiens) [compound 75],+++ (≥50 = +++)
10,64 (SLYAGSNNQV; listed as Homo sapiens) [compound 64],++ (≥20% = ++)
11,228 (SLLELDGINLRL; listed as Homo sapiens) [compound 228],+++ (≥50 = +++)
12,236 (KMSELQTYV; listed as Homo sapiens) [compound 236],+++ (≥50 = +++)
13,285 (MLLDTVQKV; listed as Homo sapiens) [compound 285],+++ (≥50 = +++)
14,220 (ALSELERVL; listed as Homo sapiens) [compound 220],+++ (≥50 = +++)
15,141 (NIDINNNEL; listed as Homo sapiens) [compound 141],++ (≥20% = ++)
16,233 (SLFESLEYL; listed as Homo sapiens) [compound 233],+++ (≥50 = +++)
17,264 (TLHDQVHLL; listed as Homo sapiens) [compound 264],++ (≥20% = ++)
18,195 (VIIQNLPAL; listed as Homo sapiens) [compound 195],+++ (≥50 = +++)
19,217 (LLWPSSVPA; listed as Homo sapiens) [compound 217],+++ (≥50 = +++)
20,150 (VLLDMVHSL; listed as Homo sapiens) [compound 150],+++ (≥50 = +++)

row,Substance,Peptide exchange
1,115 (ILHGEVNKV; listed as Homo sapiens) [compound 115],++ (≥20% = ++)
2,84 (FLLEREQLL; listed as Homo sapiens) [compound 84],++++ (≥75% = ++++)
3,263 (SIIEYLPTL; listed as Homo sapiens) [compound 263],+++ (≥50 = +++)
4,48 (KISDFGLATV; listed as Homo sapiens) [compound 48],+++ (≥50 = +++)
5,51 (LDSEALLTL; listed as Homo sapiens) [compound 51],++ (≥20% = ++)
6,109 (ILGSFELQL; listed as Homo sapiens) [compound 109],+++ (≥50 = +++)
7,83 (GLLENSPHL; listed as Homo sapiens) [compound 83],++ (≥20% = ++)
8,119 (SLIEESEEL; listed as Homo sapiens) [compound 119],++ (≥20% = ++)
9,143 (MLWESIMRV; listed as Homo sapiens) [compound 143],+++ (≥50 = +++)
10,1 (KLQEKIQEL; listed as Homo sapiens) [compound 1],++++ (≥75% = ++++)
11,185 (TLYQGLPAEV; listed as Homo sapiens) [compound 185],++ (≥20% = ++)
12,27 (GLLGKVTSV; listed as Homo sapiens) [compound 27],+++ (≥50 = +++)
13,248 (VLMQDSRLYL; listed as Homo sapiens) [compound 248],+++ (≥50 = +++)
14,210 (GLAGDNIYL; listed as Homo sapiens) [compound 210],+++ (≥50 = +++)
15,57 (TLYPGRFDYV; listed as Homo sapiens) [compound 57],++ (≥20% = ++)
16,258 (QLVQRVASV; listed as Homo sapiens) [compound 258],++ (≥20% = ++)
17,266 (FLLDKPQDL; listed as Homo sapiens) [compound 266],++ (≥20% = ++)
18,203 (FLFVDPELV; listed as Homo sapiens) [compound 203],++ (≥20% = ++)
19,80 (VLTGQVHEL; listed as Homo sapiens) [compound 80],+++ (≥50 = +++)
20,114 (LLFPSDVQTL; listed as Homo sapiens) [compound 114],++ (≥20% = ++)

row,Substance,Peptide exchange
1,147 (GLLSALENV; listed as Homo sapiens) [compound 147],+++ (≥50 = +++)
2,176 (VQSGLRILL; listed as Homo sapiens) [compound 176],++ (≥20% = ++)
3,257 (KLIDHQGLYL; listed as Homo sapiens) [compound 257],+++ (≥50 = +++)
4,247 (NLLIDDKGTIKL; listed as Homo sapiens) [compound 247],++ (≥20% = ++)
5,116 (ALLSSVAEA; listed as Homo sapiens) [compound 116],++ (≥20% = ++)
6,125 (AALEVLAEV; listed as Homo sapiens) [compound 125],+++ (≥50 = +++)
7,182 (GLQDGFQITV; listed as Homo sapiens) [compound 182],+++ (≥50 = +++)
8,219 (GVVPTIQKV; listed as Homo sapiens) [compound 219],++ (≥20% = ++)
9,213 (ILAVDGVLSV; listed as Homo sapiens) [compound 213],+++ (≥50 = +++)
10,37 (QIVELIEKI; listed as Homo sapiens) [compound 37],++ (≥20% = ++)
11,18 (KTASINQNV; listed as Homo sapiens) [compound 18],++ (≥20% = ++)
12,117 (TLLEGISRA; listed as Homo sapiens) [compound 117],++ (≥20% = ++)
13,244 (NVAEIVIHI; listed as Homo sapiens) [compound 244],+++ (≥50 = +++)
14,145 (ALEEKLENV; listed as Homo sapiens) [compound 145],+++ (≥50 = +++)
15,63 (KLLPMVIQL; listed as Homo sapiens) [compound 63],+++ (≥50 = +++)
16,254 (ALGDKFLLRV; listed as Homo sapiens) [compound 254],++ (≥20% = ++)
17,164 (MLIIRVPSV; listed as Homo sapiens) [compound 164],+++ (≥50 = +++)
18,30 (IITEVITRL; listed as Homo sapiens) [compound 30],+++ (≥50 = +++)
19,253 (KLLAVIHEL; listed as Homo sapiens) [compound 253],+++ (≥50 = +++)
20,16 (SLADLSLLL; listed as Homo sapiens) [compound 16],+++ (≥50 = +++)
